According to article PMC6286387, “Physical and thermodynamic characterization of the rice gibberellin receptor/gibberellin/DELLA protein complex” (Scientific Reports, 2018):

Key:
OsGID1 = molecular target: T1, OsGID1 (Oryza sativa, UniProt Q6L545); assay: (method not stated for the binary complex); assay type: binding; conditions: read-out: Kb (converted)
T1 construct: gene GID1; recombinant, purified
T1 sequence (Q6L545 1-354): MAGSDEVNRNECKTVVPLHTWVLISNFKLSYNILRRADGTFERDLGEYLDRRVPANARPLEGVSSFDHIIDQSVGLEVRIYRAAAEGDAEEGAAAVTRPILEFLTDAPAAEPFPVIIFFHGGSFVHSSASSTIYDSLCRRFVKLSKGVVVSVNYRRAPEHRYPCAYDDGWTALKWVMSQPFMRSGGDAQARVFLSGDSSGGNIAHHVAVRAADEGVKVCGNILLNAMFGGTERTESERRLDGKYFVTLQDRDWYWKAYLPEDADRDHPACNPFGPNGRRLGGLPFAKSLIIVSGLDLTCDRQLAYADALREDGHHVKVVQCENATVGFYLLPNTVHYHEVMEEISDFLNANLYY

[1] = molecular target: the molecule itself; assay: SEC; each protein chromatographed alone on Superdex 200 10/300 GL, 20 mM sodium phosphate (pH 7.5), 150 mM NaCl, 2 mM β-ME, 0.1 mM GA3; size against molecular weight standards
[2] = molecular target: T2, Trx-OsGID1, used as the Trx-OsGID1/GA3 complex (rice (Oryza sativa), UniProt Q6L545 1-354); assay: SEC; purified Trx-OsGID1 and a Trx-SLR1 truncation mutant incubated together at 4 °C for 30 min with 10^-4 M GA3; Superdex 200 10/300 GL in 20 mM sodium phosphate (pH 7.5), 150 mM NaCl, 2 mM β-ME, 0.1 mM GA3; fractions on SDS-PAGE; conditions: both partners purified
T2 construct: Gibberellin receptor GID1 of rice (Oryza sativa); GA3 (0.1 mM) was present in the gel filtration; also called Trx-GID1/GA3; source: recombinant, purified
T2 sequence (looked up): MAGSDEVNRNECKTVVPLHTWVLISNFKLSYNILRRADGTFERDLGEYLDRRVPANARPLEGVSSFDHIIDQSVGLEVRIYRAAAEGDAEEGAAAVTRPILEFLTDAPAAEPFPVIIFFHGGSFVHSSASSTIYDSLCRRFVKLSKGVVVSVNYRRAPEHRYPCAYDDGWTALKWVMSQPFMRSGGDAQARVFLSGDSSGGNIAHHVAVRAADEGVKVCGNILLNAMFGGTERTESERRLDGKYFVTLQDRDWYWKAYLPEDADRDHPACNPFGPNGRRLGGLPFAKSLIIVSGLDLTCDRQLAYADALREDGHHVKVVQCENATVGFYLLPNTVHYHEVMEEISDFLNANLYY

[3] = molecular target: the molecule itself; assay: ITC; dilution series: 10 μl aliquants of 0.4 mM SLR1(M28-A112) into 1.4482 ml of buffer without OsGID1/GA3, 30 °C; dimer to monomers
[4] = molecular target: T3, OsGID1 (rice gibberellin receptor GID1), Trx-free, used as the OsGID1/GA3 complex (rice (Oryza sativa), UniProt Q6L545 1-354); assay: ITC; twenty 10 μl injections of 400 μM SLR1(M28-A112) into 50 μM OsGID1/GA3, 30 °C, 20 mM sodium phosphate (pH 7.5), 150 mM NaCl, 2.0 mM β-ME, 0.1 mM GA3; conditions: both partners purified
T3 construct: Gibberellin receptor GID1 of rice (Oryza sativa); theoretical MW of the dimer printed as 79.2 kDa; The printed mass (39.6 kDa a monomer) fits the whole protein; source: recombinant, purified
T3 sequence (looked up): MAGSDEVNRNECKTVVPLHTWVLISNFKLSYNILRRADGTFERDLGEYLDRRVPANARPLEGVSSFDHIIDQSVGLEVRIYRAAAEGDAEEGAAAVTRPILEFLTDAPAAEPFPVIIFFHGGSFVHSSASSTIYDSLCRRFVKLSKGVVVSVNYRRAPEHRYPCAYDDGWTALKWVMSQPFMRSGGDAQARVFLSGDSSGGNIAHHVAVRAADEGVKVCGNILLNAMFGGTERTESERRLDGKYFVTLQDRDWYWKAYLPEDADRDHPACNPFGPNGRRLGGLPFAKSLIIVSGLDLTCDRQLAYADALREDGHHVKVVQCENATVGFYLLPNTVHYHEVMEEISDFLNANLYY

[5] = molecular target: T3, OsGID1 (rice gibberellin receptor …); assay: ITC; 10 μl aliquants of 400 μM OsGID1/GA3 into 1.4482 ml of 50 μM SLR1 variant, 30 °C, 20 mM sodium phosphate (pH 7.5), 150 mM NaCl, 2.0 mM β-ME, 0.1 mM GA3; conditions: both partners purified
[6] = molecular target: T3, OsGID1 (rice gibberellin receptor …); assay: as above; conditions: both partners purified; remark: listed apart in the source

C=C1C[C@]23C[C@H]1CC[C@H]2[C@@]12C=C[C@H](O)[C@@](C)(C(=O)O1)[C@H]2[C@@H]3C(=O)O [GA7]
Kd (OsGID1): 0.238 µM

C=C1C[C@]23C[C@H]1CC[C@H]2[C@@]12CC[C@H](O)[C@@](C)(C(=O)O1)[C@H]2[C@@H]3C(=O)O [GA4]
Kd (OsGID1): 0.192 µM

C=C1C[C@]23C[C@@]1(O)CC[C@H]2[C@@]12CC[C@H](O)[C@@](C)(C(=O)O1)[C@H]2[C@@H]3C(=O)O [GA1]
Kd (OsGID1): 1.92 µM

C=C1C[C@]23C[C@@]1(O)CC[C@H]2[C@@]12C=C[C@H](O)[C@@](C)(C(=O)O1)[C@H]2[C@@H]3C(=O)O [GA3]
Kd (OsGID1): 3.57 µM

B1: Trx-SLR1(M28-A112) (domain or fragment, rice (Oryza sativa), UniProt Q7G7J6 28-112, looked up)
chain: MAGAAGEEEDVDELLAALGYKVRSSDMADVAQKLEQLEMAMGMGGVSAPGAADDGFVSHLATDTVHYNPSDLSSWVESMLSELNA
notes: DELLA protein SLR1 of rice (Oryza sativa), residues M28-A112; theoretical monomeric MW of the fusion 29.3 kDa; Thioredoxin-hexahistidine fusion from the vector pDEST-trx; source: E. coli, purified (HiTrap Chelating, Superdex 200); not shown: Trx, N-terminal, kept; His6, N-terminal, kept
stoichiometry N [1]: 2 | stoichiometry N [2]: 1

B2: SLR1(M28-A112), Trx-free (domain or fragment, rice (Oryza sativa), UniProt Q7G7J6 28-112, looked up)
chain: MAGAAGEEEDVDELLAALGYKVRSSDMADVAQKLEQLEMAMGMGGVSAPGAADDGFVSHLATDTVHYNPSDLSSWVESMLSELNA
notes: DELLA protein SLR1 of rice (Oryza sativa), residues M28-A112; 13C/15N-labelled for the NMR spectra; also called SLR(M28-A112); source: E. coli, purified (HiTrap Chelating, Superdex 200; thrombin, HiTrap Chelating, Superdex 75); not shown: Trx, N-terminal, cleaved; His6, N-terminal, cleaved
Kd [3]: 1600 µM | dH [3]: -66 kcal/mol | Ka [4]: 1.2e+07 M⁻¹ | dH [4]: -8.75 kcal/mol | stoichiometry N [4]: 0.88 | Ka [5]: 1.1e+07 M⁻¹ | Ka [6]: 2.9e+07 M⁻¹

B3: SLR1(M1-H327) (domain or fragment, rice (Oryza sativa), UniProt Q7G7J6 1-327, looked up)
chain: MKREYQEAGGSSGGGSSADMGSCKDKVMAGAAGEEEDVDELLAALGYKVRSSDMADVAQKLEQLEMAMGMGGVSAPGAADDGFVSHLATDTVHYNPSDLSSWVESMLSELNAPLPPIPPAPPAARHASTSSTVTGGGGSGFFELPAAADSSSSTYALRPISLPVVATADPSAADSARDTKRMRTGGGSTSSSSSSSSSLGGGASRGSVVEAAPPATQGAAAANAPAVPVVVVDTQEAGIRLVHALLACAEAVQQENFAAAEALVKQIPTLAASQGGAMRKVAAYFGEALARRVYRFRPADSTLLDAAFADLLHAHFYESCPYLKFAH
notes: DELLA protein SLR1 of rice (Oryza sativa), residues M1-H327; Named without Trx in the ITC experiments; removal of the tag is told in general in the methods; also called SLR(M1-H327); source: E. coli, purified (HiTrap Chelating, Superdex 200; thrombin, HiTrap Chelating, Superdex 75); not shown: Trx, N-terminal, cleaved; His6, N-terminal, cleaved
Ka [6]: 2e+06 M⁻¹

B4: Trx-SLR1(M1-L110) (domain or fragment, rice (Oryza sativa), UniProt Q7G7J6 1-110, looked up)
chain: MKREYQEAGGSSGGGSSADMGSCKDKVMAGAAGEEEDVDELLAALGYKVRSSDMADVAQKLEQLEMAMGMGGVSAPGAADDGFVSHLATDTVHYNPSDLSSWVESMLSEL
notes: DELLA protein SLR1 of rice (Oryza sativa), residues M1-L110; Thioredoxin-hexahistidine fusion from the vector pDEST-trx; source: E. coli, purified (HiTrap Chelating, Superdex 200); not shown: Trx, N-terminal, kept; His6, N-terminal, kept
binding result [1]: binds | binding result [2]: binds

B5: SLR1(M1-A172) (domain or fragment, rice (Oryza sativa), UniProt Q7G7J6 1-172, looked up)
chain: MKREYQEAGGSSGGGSSADMGSCKDKVMAGAAGEEEDVDELLAALGYKVRSSDMADVAQKLEQLEMAMGMGGVSAPGAADDGFVSHLATDTVHYNPSDLSSWVESMLSELNAPLPPIPPAPPAARHASTSSTVTGGGGSGFFELPAAADSSSSTYALRPISLPVVATADPSA
notes: DELLA protein SLR1 of rice (Oryza sativa), residues M1-A172; Named without Trx in the ITC experiments; removal of the tag is told in general in the methods; also called SLR(M1-A172); source: E. coli, purified (HiTrap Chelating, Superdex 200; thrombin, HiTrap Chelating, Superdex 75); not shown: Trx, N-terminal, cleaved; His6, N-terminal, cleaved
Ka [6]: 2.8e+07 M⁻¹

B6: SLR1(M28-A112) ΔSPACE(G69-F83) (domain or fragment, rice (Oryza sativa), UniProt Q7G7J6 28-112, looked up)
chain: MAGAAGEEEDVDELLAALGYKVRSSDMADVAQKLEQLEMAMVSHLATDTVHYNPSDLSSWVESMLSELNA
notes: DELLA protein SLR1 of rice (Oryza sativa), residues M28-A112 with G69-F83 deleted; Named without Trx in the ITC experiments; removal of the tag is told in general in the methods; also called SLR(M28-A112)ΔSPACE; source: E. coli, purified (HiTrap Chelating, Superdex 200; thrombin, HiTrap Chelating, Superdex 75); not shown: Trx, N-terminal, cleaved; His6, N-terminal, cleaved
Ka [6]: 390000 M⁻¹

B7: Trx-SLR1(M1-E104) (domain or fragment, rice (Oryza sativa), UniProt Q7G7J6 1-104, looked up)
chain: MKREYQEAGGSSGGGSSADMGSCKDKVMAGAAGEEEDVDELLAALGYKVRSSDMADVAQKLEQLEMAMGMGGVSAPGAADDGFVSHLATDTVHYNPSDLSSWVE
notes: DELLA protein SLR1 of rice (Oryza sativa), residues M1-E104; Thioredoxin-hexahistidine fusion from the vector pDEST-trx; source: E. coli, purified (HiTrap Chelating, Superdex 200); not shown: Trx, N-terminal, kept; His6, N-terminal, kept
stoichiometry N [1]: 2
